In patent US20210388087A1 (Chugai, published 2021):
Residue numbers refer to the chain shown, from its start. Names and notes keep the numbering of the source. Each block holds one binder with its values, some of them ahead of it.

Target: T1, CD3 epsilon homodimer protein (UniProt P07766 23-126)
T1 construct: immobilized on Sensor chip CM4 by amine coupling; also called CD3 (CD3 epsilon)
Assay: SPR (Biacore T200), CD3 epsilon homodimer on CM4 chip, one-arm antibody as analyte, 25 C;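 also: homodimer attached to the sensor surface via amine coupling, HBS-EP+ used as running buffer during binding runs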
Procedure: An appropriate amount of CD3 epsilon homodimer protein was immobilized onto Sensor chip CM4 (GE Healthcare Japan Corp.) by the amine coupling method. Then, the antibody having an appropriate concentration was injected thereto as an analyte and allowed to interact with the CD3 epsilon homodimer protein on the sensor chip. Then, the sensor chip was regenerated by the injection of 10 mmol/L glycine-HCl (pH 1.5). The assay was conducted at 25 degrees C., and HBS-EP+(GE Healthcare Japan Corp.) was used as a running buffer. […] Each parameter was calculated using Biacore T200 Evaluation Software (GE Healthcare Japan Corp.).

T1 sequence (P07766 23-126): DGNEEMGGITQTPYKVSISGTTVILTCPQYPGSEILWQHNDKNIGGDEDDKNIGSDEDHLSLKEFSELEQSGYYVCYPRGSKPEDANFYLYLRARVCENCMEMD

- ratio of amounts bound (altered form / CE115HA000): 0.19
B4: CE115HA000 H35E one-arm antibody (antibody, human IgG1, kappa, L234A L235A, N297A, name in Kabat numbering)
heavy: QVQLVESGGGVVQPGRSLRLSCAASGFTFSNAWMEWVRQAPGKGLEWVAQIKAKSNNYATYYAESVKGRFTISRDDSKNSLYLQMNSLKTEDTAVYYCRYVHYGAYYGVDAWGQGTTVTVSSASTKGPSVFPLAPSSKSTSGGTAALGCLVKDYFPEPVTVSWNSGALTSGVHTFPAVLQSSGLYSLSSVVTVPSSSLGTQTYICNVNHKPSNTKVDKKVEPKSCDKTHTCPPCPAPEAAGGPSVFLFPPKPKDTLMISRTPEVTCVVVDVSHEDPEVKFNWYVDGVEVHNAKTKPREEQYASTYRVVSVLTVLHQDWLNGKEYKCKVSNKALPAPIEKTISKAKGQPREPQVYTLPPSRCELTKNQVSLSCAVKGFYPSDIAVEWESNGQPENNYKTTPPVLDSDGSFFLVSKLTVDKSRWQQGNVFSCSVMHEALHNHYTQKSLSLSPDYKDDDDK
chain: EPKSSDKTHTCPPCPAPELLGGPSVFLFPPKPKDTLMISRTPEVTCVVVDVSHEDPEVKFNWYVDGVEVHNAKTKPREEQYNSTYRVVSVLTVLHQDWLNGKEYKCKVSNKALPAPIEKTISKAKGQPREPQVCTLPPSRDELTKNQVSLWCLVKGFYPSDIAVEWESNGQPENNYKTTPPVLDSDGSFFLYSKLTVDKSRWQQGNVFSCSVMHEALHNRYTQKSLSLSP
light: DIVMTQSPLSLPVTPGEPASISCRSSQSLVHSNRNTYLHWYQQKPGQAPRLLIYKVSNRFSGVPDRFSGSGSGTDFTLKISRVEAEDVGVYYCGQGTQVPYTFGQGTKLEIKRTVAAPSVFIFPPSDEQLKSGTASVVCLLNNFYPREAKVQWKVDNALQSGNSQESVTEQDSKDSTYSLSSTLTLSKADYEKHKVYACEVTHQGLSSPVTKSFNRGEC

- ratio of amounts bound (altered form / CE115HA000): 0.13
B7: CE115HA000 H35Q one-arm antibody (antibody, human IgG1, kappa, L234A L235A, N297A, name in Kabat numbering)
heavy: B4 heavy with E35Q
chain: B4 chain
light: B4 light

- ratio of amounts bound (altered form / CE115HA000): 0.12
B9: CE115HA000 H35I one-arm antibody (antibody, human IgG1, kappa, L234A L235A, N297A, name in Kabat numbering)
heavy: B4 heavy with E35I
chain: B4 chain
light: B4 light

- ratio of amounts bound (altered form / CE115HA000): 0.27
B11: CE115HA000 G100bL one-arm antibody (antibody, human IgG1, kappa, L234A L235A, N297A, name in Kabat numbering)
heavy: B4 heavy with E35H, G108L
chain: B4 chain
light: B4 light

- ratio of amounts bound (altered form / CE115HA000): 0.22
B12: CE115HA000 H35G one-arm antibody (antibody, human IgG1, kappa, L234A L235A, N297A, name in Kabat numbering)
heavy: B4 heavy with E35G
chain: B4 chain
light: B4 light

- ratio of amounts bound (altered form / CE115HA000): 0.35
B14: CE115HA000 H35N one-arm antibody (antibody, human IgG1, kappa, L234A L235A, N297A, name in Kabat numbering)
heavy: B4 heavy with E35N
chain: B4 chain
light: B4 light

- ratio of amounts bound (altered form / CE115HA000): 0.14
B15: CE115HA000 H35R one-arm antibody (antibody, human IgG1, kappa, L234A L235A, N297A, name in Kabat numbering)
heavy: B4 heavy with E35R
chain: B4 chain
light: B4 light

- ratio of amounts bound (altered form / CE115HA000): 0.52
B18: CE115HA000 G100bS one-arm antibody (antibody, human IgG1, kappa, L234A L235A, N297A, name in Kabat numbering)
heavy: B4 heavy with E35H, G108S
chain: B4 chain
light: B4 light

- ratio of amounts bound (altered form / CE115HA000): 0.23
B19: CE115HA000 G100bY one-arm antibody (antibody, human IgG1, kappa, L234A L235A, N297A, name in Kabat numbering)
heavy: B4 heavy with E35H, G108Y
chain: B4 chain
light: B4 light

- ratio of amounts bound (altered form / CE115HA000): 0.21
B20: CE115HA000 H35F one-arm antibody (antibody, human IgG1, kappa, L234A L235A, N297A, name in Kabat numbering)
heavy: B4 heavy with E35F
chain: B4 chain
light: B4 light

- ratio of amounts bound (altered form / CE115HA000): 0.3
B23: CE115HA000 G100bF one-arm antibody (antibody, human IgG1, kappa, L234A L235A, N297A, name in Kabat numbering)
heavy: B4 heavy with E35H, G108F
chain: B4 chain
light: B4 light

- ratio of amounts bound (altered form / CE115HA000): 0.15
B24: CE115HA000 H35K one-arm antibody (antibody, human IgG1, kappa, L234A L235A, N297A, name in Kabat numbering)
heavy: B4 heavy with E35K
chain: B4 chain
light: B4 light

- ratio of amounts bound (altered form / CE115HA000): 0.11
B26: CE115HA000 H35L one-arm antibody (antibody, human IgG1, kappa, L234A L235A, N297A, name in Kabat numbering)
heavy: B4 heavy with E35L
chain: B4 chain
light: B4 light

- ratio of amounts bound (altered form / CE115HA000): 0.2
B31: CE115HA000 H35D one-arm antibody (antibody, human IgG1, kappa, L234A L235A, N297A, name in Kabat numbering)
heavy: B4 heavy with E35D
chain: B4 chain
light: B4 light

- ratio of amounts bound (altered form / CE115HA000): 0.29
B33: CE115HA000 H35M one-arm antibody (antibody, human IgG1, kappa, L234A L235A, N297A, name in Kabat numbering)
heavy: B4 heavy with E35M
chain: B4 chain
light: B4 light

Further lines, the binder ahead of its results:

B1: CE115HA000 E61D one-arm antibody (antibody, human IgG1, kappa, L234A L235A, N297A, name in Kabat numbering)
heavy: B4 heavy with E35H, E64D
chain: B4 chain
light: B4 light
- ratio of amounts bound (altered form / CE115HA000): 0.91

B2: CE115HA000 G98D one-arm antibody (antibody, human IgG1, kappa, L234A L235A, N297A, name in Kabat numbering)
heavy: B4 heavy with E35H, G104D
chain: B4 chain
light: B4 light
- ratio of amounts bound (altered form / CE115HA000): 0.26

B3: CE115HA000 G98A one-arm antibody (antibody, human IgG1, kappa, L234A L235A, N297A, name in Kabat numbering)
heavy: B4 heavy with E35H, G104A
chain: B4 chain
light: B4 light
- ratio of amounts bound (altered form / CE115HA000): 1.1

B5: CE115HA000 G65E one-arm antibody (antibody, human IgG1, kappa, L234A L235A, N297A, name in Kabat numbering)
heavy: B4 heavy with E35H, G68E
chain: B4 chain
light: B4 light
- ratio of amounts bound (altered form / CE115HA000): 0.78

B6: CE115HA000 G98R one-arm antibody (antibody, human IgG1, kappa, L234A L235A, N297A, name in Kabat numbering)
heavy: B4 heavy with E35H, G104R
chain: B4 chain
light: B4 light
- ratio of amounts bound (altered form / CE115HA000): 2.96

B8: CE115HA000 G98T one-arm antibody (antibody, human IgG1, kappa, L234A L235A, N297A, name in Kabat numbering)
heavy: B4 heavy with E35H, G104T
chain: B4 chain
light: B4 light
- ratio of amounts bound (altered form / CE115HA000): 1.05

B10: CE115HA000 G98P one-arm antibody (antibody, human IgG1, kappa, L234A L235A, N297A, name in Kabat numbering)
heavy: B4 heavy with E35H, G104P
chain: B4 chain
light: B4 light
- ratio of amounts bound (altered form / CE115HA000): 1.02

B13: CE115HA000 G98H one-arm antibody (antibody, human IgG1, kappa, L234A L235A, N297A, name in Kabat numbering)
heavy: B4 heavy with E35H, G104H
chain: B4 chain
light: B4 light
- ratio of amounts bound (altered form / CE115HA000): 1.58

B16: CE115HA000 G98Y one-arm antibody (antibody, human IgG1, kappa, L234A L235A, N297A, name in Kabat numbering)
heavy: B4 heavy with E35H, G104Y
chain: B4 chain
light: B4 light
- ratio of amounts bound (altered form / CE115HA000): 2.22

B17: CE115HA000 G98Q one-arm antibody (antibody, human IgG1, kappa, L234A L235A, N297A, name in Kabat numbering)
heavy: B4 heavy with E35H, G104Q
chain: B4 chain
light: B4 light
- ratio of amounts bound (altered form / CE115HA000): 1.22

B21: CE115HA000 G100bE one-arm antibody (antibody, human IgG1, kappa, L234A L235A, N297A, name in Kabat numbering)
heavy: B4 heavy with E35H, G108E
chain: B4 chain
light: B4 light
- ratio of amounts bound (altered form / CE115HA000): 0.26

B22: CE115HA000 G98S one-arm antibody (antibody, human IgG1, kappa, L234A L235A, N297A, name in Kabat numbering)
heavy: B4 heavy with E35H, G104S
chain: B4 chain
light: B4 light
- ratio of amounts bound (altered form / CE115HA000): 1.01

B25: CE115HA000 E61P one-arm antibody (antibody, human IgG1, kappa, L234A L235A, N297A, name in Kabat numbering)
heavy: B4 heavy with E35H, E64P
chain: B4 chain
light: B4 light
- ratio of amounts bound (altered form / CE115HA000): 1.07

B27: CE115HA000 G100bD one-arm antibody (antibody, human IgG1, kappa, L234A L235A, N297A, name in Kabat numbering)
heavy: B4 heavy with E35H, G108D
chain: B4 chain
light: B4 light
- ratio of amounts bound (altered form / CE115HA000): 0.27

B28: CE115HA000 F29V one-arm antibody (antibody, human IgG1, kappa, L234A L235A, N297A, name in Kabat numbering)
heavy: B4 heavy with F29V, E35H
chain: B4 chain
light: B4 light
- ratio of amounts bound (altered form / CE115HA000): 0.36

B29: CE115HA000 E61Q one-arm antibody (antibody, human IgG1, kappa, L234A L235A, N297A, name in Kabat numbering)
heavy: B4 heavy with E35H, E64Q
chain: B4 chain
light: B4 light
- ratio of amounts bound (altered form / CE115HA000): 1.07

B30: CE115HA000 G65D one-arm antibody (antibody, human IgG1, kappa, L234A L235A, N297A, name in Kabat numbering)
heavy: B4 heavy with E35H, G68D
chain: B4 chain
light: B4 light
- ratio of amounts bound (altered form / CE115HA000): 0.76

B32: CE115HA000 G98K one-arm antibody (antibody, human IgG1, kappa, L234A L235A, N297A, name in Kabat numbering)
heavy: B4 heavy with E35H, G104K
chain: B4 chain
light: B4 light
- ratio of amounts bound (altered form / CE115HA000): 2.83
